Experimental data taken from publication PMC3936760 (Nucleic Acids Research, 2013).

Molecular target: full-length human poly(A)-binding protein (PABP, PABPC1) (human, UniProt P11940 1-636)
Experiment: FRET or BRET

full-length human poly(A)-binding protein (PABP, PABPC1), sequence (P11940 whole entry): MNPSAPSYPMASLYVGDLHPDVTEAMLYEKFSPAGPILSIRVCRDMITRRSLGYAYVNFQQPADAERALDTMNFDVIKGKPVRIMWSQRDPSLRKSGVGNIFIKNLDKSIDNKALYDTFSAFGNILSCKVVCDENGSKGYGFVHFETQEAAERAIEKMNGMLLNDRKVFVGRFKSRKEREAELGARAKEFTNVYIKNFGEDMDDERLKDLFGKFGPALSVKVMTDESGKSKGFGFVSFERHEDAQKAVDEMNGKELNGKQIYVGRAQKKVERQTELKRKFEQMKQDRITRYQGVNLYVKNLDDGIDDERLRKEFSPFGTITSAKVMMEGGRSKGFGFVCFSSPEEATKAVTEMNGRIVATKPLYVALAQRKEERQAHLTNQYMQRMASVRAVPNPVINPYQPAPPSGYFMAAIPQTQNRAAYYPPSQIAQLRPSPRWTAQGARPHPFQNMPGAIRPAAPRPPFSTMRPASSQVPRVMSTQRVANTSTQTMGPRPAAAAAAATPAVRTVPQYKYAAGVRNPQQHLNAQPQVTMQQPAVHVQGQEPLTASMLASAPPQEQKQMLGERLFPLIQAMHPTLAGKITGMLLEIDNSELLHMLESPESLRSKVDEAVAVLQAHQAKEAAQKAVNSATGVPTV

kon: 153000 M⁻¹ s⁻¹
B1: GST-tagged human PABP-interacting protein 2 (Paip2) (natural protein, UniProt Q9BPZ3 1-127, looked up)
chain: MKDPSRSSTSPSIINEDVIINGHSHEDDNPFAEYMWMENEEEFNRQIEEELWEEEFIERCFQEMLEEEEEHEWFIPARDLPQTMDQIQDQFNDLVISDGSSLEDLVVKSNLNPNAKEFVPGVKYGNI
